B1: 抗SARS-CoV-2 RBD VHH抗体 A03 (VHH, not shown: small tags and cut ends)
VHH: QVQLVESGGALVQPGGSLRLSCAASGFPVNHNAMHWFRQAPGKERESVAGISHVVYRTYYEDSVKGRFTISRDDARNTVYLQMNSLKPEDTAVYYCAAVALTDLRLYWGQGTQVTVGG
notes: also called A03
B2: 抗SARS-CoV-2 RBD VHH抗体 A02 (VHH, not shown: small tags and cut ends)
VHH: QVQLVESGGALVQPGGSLRLSCAASGFPVNRNTMHWFRQAPGKEREGVAGISSRGDWTYYEDSVKGRFTISRDDARNTVYLQMNSLKPEDTAVYYCAAYLWLLGGVYWGQGTQVTVGG
notes: also called A02
B3: 抗SARS-CoV-2 RBD VHH抗体 B04 (VHH, not shown: small tags and cut ends)
VHH: QVQLVESGGALVQPGGSLRLSCAASGFPVNRNTMHWFRQAPGKEREGVAGISSRGDWTYYEDSVKGRFTISRDDARNTVYLQMNSLKPEDTAVYYCAALLWHYGGVYWGQGTQVTAGG
notes: also called B04
B4: 抗SARS-CoV-2 RBD VHH抗体 B02 (VHH, not shown: small tags and cut ends)
VHH: QVQLVESGGALVQPGGSLRLSCAASGFPVNRNTMHWFRQAPGKEREGVAGISSRGDWTYYEDSVKGRFTISRDDARNTVYLQMNSLKPEDTAVYYCAALLWNYGGVCWGQGTQVTVGG
notes: also called B02
B5: 抗SARS-CoV-2 RBD VHH抗体 B13 (VHH, not shown: small tags and cut ends)
VHH: QVQLVESGGALVQPGGSLRLSCAASGFPVNHHTMLWFRQAPGKEREGVAGISFRGNWTYYEDSVKGRFTISRDDARNTVYLQMNSLKPEDTAVYYCAAHLWLLGGVYWGQGTQVTVGG
notes: also called B13
B6: 抗SARS-CoV-2 RBD VHH抗体 B16 (VHH, not shown: small tags and cut ends)
VHH: QVQLVESGGALVQPGGSLRLSCAASGFPVNHNAVHWFRQAPGKEREGVAGISHLVHRTYYEDSVKGRFTISRDDARNTVYLQMNSLKPEDTAVYYCAAYLWLLGGVYWGQGTQVTVGG
notes: also called B16
B7: 抗SARS-CoV-2 RBD VHH抗体 A15 (VHH, not shown: small tags and cut ends)
VHH: QVQLVESGGALVQPGGSLRLSCAASGFPVNRNTMHWYRQAPGKEREGVAGISSRGDWTYYEDSVKGRFTISRDDARNTVYLQMSSLKPEDTAVYYCAAVGVLSVSAFGWLYWGQGTQVTVGG
notes: also called A15

What follows are binders tested against T1, SARS-CoV-2 RBDタンパク質(Recombinant SARS-CoV-2, S1 Subunit Protein (RBD)、RayBiotech Life, Inc.) (SARS-CoV-2, UniProt P0DTC2 319-541) (assay: ELISA, RBD coated 50 ng/well, VHH 50 ng/well, anti-FLAG detection, A450, n=4).
B1: binds. B2: binds.

These binders were tested against T1, SARS-CoV-2 RBDタンパク質(Recombinant … (assay: ELISA on coated RBD, legend of Figure 2, n=4).
B3: binds. B4: binds. B5: binds. B6: binds. B7: binds.
